{"source": "patent US20230324389", "proteins": {"B1": {"name": "Legumain (protein)", "chain": "VPIDDPEDGGKHWVVIVAGSNGWYNYRHQADACHAYQIIHRNGIPDEQIVVMMYDDIAYSEDNPTPGIVINRPNGTDVYQGVPKDYTGEDVTPQNFLAVLRGDAEAVKGIGSGKVLKSGPQDHVFIYFTDHGSTGILVFPNEDLHVKDLNETIHYMYKHKMYRKMVFYIEACESGSMMNHLPDNINVYATTAANPRESSYACYYDEKRSTYLGDWYSVNWMEDSDVEDLTKETLHKQYHLVKSHTNTSHVMQYGNKTISTMKVMQFQGMKRKASSPVPLPPVTHLDLTPSPDVPLTIMKRKLMNTN"}, "B2": {"name": "ST14/Matriptase (protein)", "chain": "GSDEKDCDCGLRSFTRQARVVGGTDADEGEWPWQVSLHALGQGHICGASLISPNWLVSAAHCYIDDRGFRYSDPTQWTAFLGLHDQSQRSAPGVQERRLKRIISHPFFNDFTFDYDIALLELEKPAEYSSMVRPICLPDASHVFPAGKAIWVTGWGHTQYGGTGALILQKGEIRVINQTTCENLLPQQITPRMMCVGFLSGGVDSCQGDSGGPLSSVEADGRIFQAGVVSWGDGCAQRNKPGVYTRLPLFRDWIKENTGV"}, "B3": {"name": "MMP2 (protein)", "chain": "YNFFPRKPKWDKNQITYRIIGYTPDLDPETVDDAFARAFQVWSDVTPLRFSRIHDGEADIMINFGRWEHGDGYPFDGKDGLLAHAFAPGTGVGGDSHFDDDELWTLGEGQVVRVKYGNADGEYCKFPFLFNGKEYNSCTDTGRSDGFLWCSTTYNFEKDGKYGFCPHEALFTMGGNAEGQPCKFPFRFQGTSYDSCTTEGRTDGYRWCGTTEDYDRDKKYGFCPETAMSTVGGNSEGAPCVFPFTFLGNKYESCTSAGRSDGKMWCATTANYDDDRKWGFCPDQGYSLFLVAAHEFGHAMGLEHSQDPGALMAPIYTYTKNFRLSQDDIKGIQELYGASPDIDLGTGPTPTLGPVTPEICKQDIVFDGIAQIRGEIFFFKDRFIWRTVTPRDKPMGPLLVATFWPELPEKIDAVYEAPQEEKAVFFAGNEYWIYSASTLERGYPKPLTSLGLPPDVQRVDAAFNWSKNKKTYIFAGDKFWRYNEVKKKMDPGFPKLIADAWNAIPDNLDAVVDLQGGGHSYFFKGAYYLKLENQSLKSVKFGSIKSDWLGC"}, "B4": {"name": "MMP7 (protein)", "chain": "YSLFPNSPKWTSKVVTYRIVSYTRDLPHITVDRLVSKALNMWGKEIPLHFRKVVWGTADIMIGFARGAHGDSYPFDGPGNTLAHAFAPGTGLGGDAHFDEDERWTDGSSLGINFLYAATHELGHSLGMGHSSDPNAVMYPTYGNGDPQNFKLSQDDIKGIQKLYGKRSNSRKK"}}, "data": [{"target": "818-C1 MB", "values": [{"protein": "B1", "unmasking (protease cleavage) rate": "Legumain demonstrated minimal unmasking differences"}, {"protein": "B2", "unmasking (protease cleavage) rate": "ST14 unmaking was characterized by 818-C1MA>818-P1>818-C1 MB"}, {"protein": "B3", "unmasking (protease cleavage) rate": "MMP2: 818-P1>818-C1MA>818-C1 MB"}, {"protein": "B4", "unmasking (protease cleavage) rate": "MMP1: 818-P1>818-C1MA=818-C1 MB"}]}, {"target": "818-C1MA", "values": [{"protein": "B1", "unmasking (protease cleavage) rate": "Legumain demonstrated minimal unmasking differences"}, {"protein": "B2", "unmasking (protease cleavage) rate": "ST14 unmaking was characterized by 818-C1MA>818-P1>818-C1 MB"}, {"protein": "B3", "unmasking (protease cleavage) rate": "MMP2: 818-P1>818-C1MA>818-C1 MB"}, {"protein": "B4", "unmasking (protease cleavage) rate": "MMP1: 818-P1>818-C1MA=818-C1 MB"}]}, {"target": "818-P1", "values": [{"protein": "B1", "unmasking (protease cleavage) rate": "Legumain demonstrated minimal unmasking differences"}, {"protein": "B2", "unmasking (protease cleavage) rate": "ST14 unmaking was characterized by 818-C1MA>818-P1>818-C1 MB"}, {"protein": "B3", "unmasking (protease cleavage) rate": "MMP2: 818-P1>818-C1MA>818-C1 MB"}, {"protein": "B4", "unmasking (protease cleavage) rate": "MMP1: 818-P1>818-C1MA=818-C1 MB"}]}]}
